The DeepSol protein solubility set

Assay: soluble on expression in E. coli; label from the status in PepcDB or PDB records

Row | Sequence | soluble on expression in E. coli
1 | MSLARKKRNPDAEKLAESILNAYQPESVDDMQDALKDVFGPLFEKMLQGELNNHLGYDAHSKEPKEHDNRRNGYGTKTLKTSFGEVAIDVPRDREASFEPELIPKRKRDVSDIEGKVLSMYARGMSQRDIAATVEAIYGFDISHEMISDITDAVLPELEEWQARPLAKCYAFLFVDCMYVTLRENYEAKEYAVYTILGYDLKGNKEILGLWLNQTESKNRWMQVFDELKARGVEDVFFISMDGVSGLEEGAKAIFPSVIVQRCIVHLVRNALRYIPSKDYKEVCRDMKKFYGASSLNAAHAAFGSFQNRWSHYSGAVDVWKRNFAHVEQLFDYGSAIRKIMYTTNAVESVHSSFRKVTKKGAFSNENALLKLLYLRTKELHAKWSGGRIQNWAMVLKQLMINETFSSRMKSMRFTFRNNGRFIQLCVRSKEGHHHHHH | soluble
2 | MSLARVGVVCHVHPDADTIGAGLALALVLDGCGKRVEVSFAAPATLPESLRSLPGCHLLVRPEVMRRDVDLVVTVDIPSVDRLGALGDLTDSGRELLVIDHHASNDLFGTANFIDPSADSTTTMVAEILDAWGKPIDPRVAHCIYAGLATDTGSFRWASVRGYRLAARLVEIGVDNATVSRTLMDSHPFTWLPLLSRVLGSAQLVSEAVGGRGLVYVVVDNREWVAARSEEVESIVDIVRTTQQAEVAAVFKEVEPHRWSVSMRAKTVNLAAVASGFGGGGHRLAAGYTTTGSIDDAVASLRAALGEGHHHHHH | not soluble
3 | MSLASISLPVGGRLLPYELTGRPVPLKGRDAAAFPRVAFAAAHVVADPLADNDPWVTPAIDWERTLAFRHRLWDLGLGVAESMDTAQRGMGLGWPEARELIGRSLSEARGRSGALIACGAGTDHLVPGPNVTIDEILRAYESQIETIEAEGGRIILMASRALAAAAKGPEDYFRVYDRILSQVKEPVIIHWLGEMFDPALEGYWGNADHMAAMKTCLDVIEAHAAKVDGIKISLLSKKKEIVMRRQLPKGVRMYTGDDFNYAELISGDEEGYSDALLGIFDAIAPVASAALEALGGGRNGEFFELLDPTVPLSRHIFKAPTRFYKTGVVFLAYLNGLQDHFAMIGGQQSARSLVHLAELFRLADRAGVLQDPELAAGRMRRVLAVNGVAEGHHHHHH | soluble
4 | MSLASTIMSQEVSWTDILEKHPALRWIKPIPEDWEIFPKHLCAFESFLYVAVGQEVRSLDCRLLKHKNEASHKNFYKKLFNPELDFMIEQICLSKNGRFLAVVGKSKIVILGLRSKLSEQNPLAESVSNFGESVNNFSNSEHQENGTNSLKLSEVTICSVAVINPSSQIVSVRFHPLGKSGRSLVVLTETSLLLYEAGNGVLMPDYEIPLKLTHQASNSFDADVDLHIPTAFCFSNVSQGWGVFTIYILTRGGDVFSVCPVMPANAMIPQDVLKQIRLILTKKEDDADAENHRRNVHWITKLLGEAALANDLSTSEGHHHHHH | soluble
5 | MSLATEIVENMFCVNAPAGSGKTTKIKSMIVNHKIKHPIDNILCITYTKRAAEELNKDFNEEGIHISTIHSFLHKFLKIYFCKTEMKDLYFEMFEDLIKESIENKEEKEHIVTRNQKYIEKHGCLSVESIKANIDAIYYNESSNNHLYTGGLAHDSLLLFAEKVFDKFPKIKMRLTQKYQSIFIDEYQDSAASVLRMFYKACLNTKSNLYFLGDKMQQIYKNYDGSFEEELKTLNTDIKLDINHRSIPDIVSVLNNIYNDKGFKQNPSKKNLDIKPDHPPRIIMCDNIQERLKRECSIYPDALLLFLLNQQKFASIGARELYKQFSHLERYSHAKQLSATDVLSDNTSENTDPLLKLLFIVGEVVDYYKKSNVGSIIQIFKANRKLFDMGIGTITSHRDRIDLTKLLKQLYEDYHKEISISEFLTLLRGCNEGHHHHHH | not soluble
6 | MSLATIKDVAQRAGLSISTVSRYLNHHPYISEDKKIKIQQAMDELDYVPNLVAMQLRSNKSYTIGIIVPRITNPYFAYLIDAIDKKIKGTPYHTLIMQTYNDKEEELRLLNMFKQRQIAGVIMGALENDIEVLETYTKYGPIILSADQSMQSDKVKIIHTTQRQTTYDAIQYLINKGYRNIAYCTDNNYYDHCFNKPRNVGFRVAMKDNGLDIRNEWIFNNVHTIEDGEQIGKILLRQEQLPDAIFTGSDEVALGLMHFMTAHQIDIPNQIAIMGYDNQPISSLLKIPLSTVNQPVNDIGMQLINYLLALLEETEFEINDNVLKLNIVERQSTEGHHHHHH | soluble
7 | MSLATKLRRVRKSPPEGWDLIEPTLEQFEAKMREAETEPHEGKRKTEINWPIFRIHHQRSRYVYDMYYKKAEISRELYEFCLTAKFADAALIAKWKKQGYENLCCVKCVNTRDSNFGTACICRVPKSKLDAERVIECVHCGCHGCSG | not soluble
8 | MSLATLLHIDSSVFPSAASASRAVAETFRTAWQEQHPDGTVIYRDLSANPVPHITADAHTAGFADPATHTPGQAAAFAEREKLIAELEQADAVLIGAPMYNYAIPSTLKAWLDNVILMGRTAANENSKVTGTPVTVIASRGGSYAPGTPREPYEYVQNYLKAVLSDALGLELEFIVPELTMAAHNPAMSELVPLAEASRAKAHEDAAAKAKELADRFAAEGHHHHHH | soluble
9 | MSLAVLGDVARLADVSTATVSRVYNEPDKVSPSVRERVLQAAAALNWIPNAAGRALASTRTHIAGAIIPTLDDQVFASQVAGMQAVFAERGITLFLGCSNYDPAQALIQVRAMLARGVEVIAIVGEAHPPELFDALKQARVPYAITYAYREGSPHHCIGFDNRAAFVAIAEHLLALGHRTFAAVIQPARDNDRVQARVAGIREALERHGIAVRPSHLHEGPATIAFGRQSLRAIWQGADERPTAIICGNDQLAIGVLLEAAELGIKVPQQLSVTGFDDVAIAQQIHPSLTTVRVDTAEIGRRAARYLLDVLDGKEAAESGLVQPELMVRESTAEGHHHHHH | soluble
10 | MSLAYGSLLFKRFSITIKYRKLIVEHIEKGDLKLTEEFKNILRDLMVTTFKKADSILIEKCKAEEKHYSSCTGVVLLFIKDILVNAHIGDSRSVACTYSNSINLAQFLTIDHKPDQPLEYRRIVENGGSVEYLQNHNNKPFLRGGDFTRRRARGETPMQLQYSRAFGGKDLKPYGLSCVPDISIISLNQNNRLFIIATDGIWDLLSAQQSCDLSFYSQELGIQPARYLVNAVLEETRNRNTNCDNLTAICIMHIKNEGHHHHHH | soluble
11 | MSLAYTKKKYTPKTKEQIKEETKEIMDKVLTDITKYYRSPEDMLELANFMAKFSNYSPKNMQLIRSQFENAYACANFKAFKDAGFHVNKGETAMKVFHPYVKEYVRDPRTKLAIPLGKLTEEQKKQVKNGELKVEKQTNYYLKATAFDISQTNAKPEDLPKIFPNRQFNFEINDEGHHHHHH | not soluble
12 | MSLCEDMLLCNYRKCRIKLSGYAWVTACSHIFCDQHGSGEFSRSPAICPACNSTLSGKLDIVRTELSPSEEYKAMVLAGLRPEIVLDISSRALAFWTYQVHQERLYQEYNFSKAEGHLKQMEKIYTQQIQSKDVELTSMKGEVTSMKKVLEEYKKKFSDISEKLMERNRQYQKLQGLYDSLRLRNITIANHEGTLEPSMIAQSGVLGFPLGNNSKFPLDNTPVRNRGDGDGDFQFRPFFAGSPTAPEPSNSFFSFVSPSRELEQQQVSSRAFKVKRI | soluble
13 | MSLCMEAVMNIGIYIYDEAEVLDFSGPFEVFSTAKRLGAGSWNVFLVSETLEPVKARGGFTVLPDYSFQNYPQIDLLIVVGGVHRNEMNKSNVLHWVASVDKHAKHIASVCTGAFILANAGLLKGLAVTTHWEDIPELKQRFPDLVVVEDKRWITASKYTTSGGISAGIDMSLFLVSKFHSQSHAELVAHQMEYNWQKCTEGGSHHHHHH | soluble
14 | MSLCPLTPVGKYLLLPLWLGVRPFFRALFRIEVIGKENIPEGACIVASNHRSHLDPPVLNAVFPEPLVFLAKEELFKPPFGGILKHMRAIPLRRGSEDISTLEECVSLLKLGCKIGIFPEGTRANPGEFKRAKPGVGFLAINSGFPVLPVYIDGTDRAFPRGKKFPKPFVKVSVVIGKPLEFKGLEPSVKNYKRVANEIMEEIKKLAQSLHRKEGHHHHHH | soluble
15 | MSLDGVLISSREAIAAAWSRVAGEQGVALGPDCLRDHVHGRPGGYTLDYLFGHLPMERRRILKQRVDALEEGADCPLLPGVAAVIRQLRWLDVPLALVTSSWPARIDHVLRQHDLQAAFRTLVSRDDVVHGKPAPDGYRLAAARLGVAPSRCLVFEDSLSGVQAACAAGATCVAIGEESGLLAAGARWSVRDFRELRIVREDDRLYCQHRHPATTGSERSVGVPEGHHHHHH | not soluble
16 | MSLDHSRDQARRNIAVHYDLSNDLFAAFLDETMTYSCAMFTDLLAQPTPAWTELAAAQRRKIDRLLDVAGVQQGSHVLEIGTGWGELCIRAAARGAHIRSVTLSVEQQRLARQRVAAAGFGHRVEIDLCDYRDVDGQYDSVVSVEMIEAVGYRSWPRYFAALEQLVRPGGPVAIQAITMPHHRMLATRHTQTWIQKYIFPGGLLPSTQAIIDITGQHTGLRIVDAASLRPHYAETLRLWRERFMQRRDGLAHLGFDEVFARMWELYLAYSEAGFRSGYLDVYQWTLIREGPEGHHHHHH | not soluble
17 | MSLDIHDILVIDDSRLQRQHAMDLCRQLGIASVREAPDGERGLTLMRVQMPDLLLLDLEMPKQDGVQVMQEMARAGLSSPVIITSGKDYLLISTVELMGRELGLPVLGCLQKPLQLPALLDLMHRVWTPAERPDDAPLAADEVRVALEKGQIIPYYQPKVNLADGRVKGAEMLARWQHPDLGLIPPSRFIPVIEDNGWATELTMLMLRQGLTQWQEWARHGLRLPLSVNLSALSLRGDELVDEIECYVRGSHVPARFIIFEVTETAIVDNLAQAIGCAVRLRLAGLGLSIDDFGTGFATLQQLTRFPFTELKIDQSLVTGISDKPHLQAVFNSIIEMARRLQLATVAEGIETAEDYQLMAERGCQLGQGYYFARPLPAAAFLEWTRQPPVLPTAGEGHHHHHH | not soluble
18 | MSLDKIFVEEAVSELHTLQDMIRWTVSRFNAANLFYGQGTDNAWDEAVQLILPTLYLPIDVPPHVLSSRLTSSERLRVVERVIKRINDRTPVAYLTNKAWFCGLEFFVDSRVLVPRSPIGELIQNRFEPWLTEEPTRIMDLCTGSGCIAIACANAFPEAEVDAIDISVDALNVAEQNIQDHGLEQQVFPIRSDLFRDLPQEQYDLIVTNPPYVDQEDMDSLPSEFRHEPELGLAAGSDGLKLARRILANAPLYLKENGILVCEVGNSMVHMMEQYPHIPFTWLEFENGGHGVFLLTREQLIDCAADFALYKDEGHHHHHH | soluble
19 | MSLDKNLQTVIHDEHCGTLDFSLGDSRYSGELESGESYTVNFSVNPPEGSSIKVARAYIYWTWSKQGLDGIYPEFKSSLVHSGSSVLLLEEKRYTDTKGFVSRYDFFSGTDVYDLSEDISEAGNYSISLVNAGGDEKTFCVQGAGLLLVYENPDLPQTEYWINEGCDVLYAEYGIDPDMATTTTFFEGDICPENIENARLITVSPSGGYSSGTEARNRLFFNEKTGSIPVIGDIIKLLFAGGKSWKNVYQTNETVQIALDERSVGNYLDSNGNFASIQDNGDYLMATNAILLLEFKEPENPGKRYGEGHHHHHH | not soluble
